One assay has as its target ubiquitin (UniProt P0CG48 1-76). Briefly: SPR. A general note: Surface plasmon resonance follows binding to a sensor surface in real time, without labels.
In another assay the target is human Rad6 (hHR6B) (human, UniProt P63146 1-152). Put plainly: SEC. Background: In gel filtration, larger molecules generally elute earlier.

What is called Kd is the concentration at which binding is half-saturated. Lower therefore signals higher affinity.

human Rad6 (hHR6B), sequence (P63146 whole entry): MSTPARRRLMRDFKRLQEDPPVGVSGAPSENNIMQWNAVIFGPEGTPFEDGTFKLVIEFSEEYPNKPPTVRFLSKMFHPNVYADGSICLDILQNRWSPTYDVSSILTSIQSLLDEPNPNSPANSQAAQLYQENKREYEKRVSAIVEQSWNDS

Take TLKQVTKVDCPVCGVNIPESHINKHLDSCLSREEKKES (domain or fragment) [GST-ZnF (Rad18 zinc finger domain)]: in the assay with ubiquitin, binding was put at a Kd of 42.1 µM.
The same measure, in the same setting: to TLKQVTKVDCPVFGVNIPESHINKHLDSCLSREEKKES (domain or fragment) [GST-C207F ZnF] belongs 192 µM.

B1: GST-fused Rad18 (1–99), Ring domain (domain or fragment)
chain: MDSLAESRWPPGLAVMKTIDDLLRCGICFEYFNIAMIIPQCSHNYCSLCIRKFLSYKTQCPTCCVTVTEPDLKNNRILDELVKSLNFARNHLLQFALES
For B1, in the assay with human Rad6 (hHR6B), the binding result was “binds”.

(Values after publication PMC2034485 (Nucleic Acids Research, 2007).)
